The values below come from patent US20260242497A1 (VIAL HEALTH TECHNOLOGY, published 2026).

In test [1] the target is T1, TL1A (antigen of Examples 1 and 2, species not stated) (UniProt O95150 57-251, limits assumed).
T1 sequence (looked up): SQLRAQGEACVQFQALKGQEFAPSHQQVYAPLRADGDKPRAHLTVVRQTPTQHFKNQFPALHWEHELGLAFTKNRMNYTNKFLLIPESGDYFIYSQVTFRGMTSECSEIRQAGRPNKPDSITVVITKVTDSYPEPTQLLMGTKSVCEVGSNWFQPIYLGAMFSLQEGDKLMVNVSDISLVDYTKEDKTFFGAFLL
The experiment in a line: cell-based or functional assay.

For test [2], the target named is T2, human FcRn (human, UniProt P55899 24-297; P61769 21-119).
T2 construct: also called neonatal Fc receptor
The experiment in a line: SPR, Biacore 8K, CM5 chip, FcRn, pH 6.0. On the technique in general: SPR reads the build-up and loss of mass on a sensor chip optically.

Test [3] addresses T1, TL1A (antigen of Examples 1 and 2, …). The test can be described thus: SPR, Biacore 8K, Protein A chip, antibody captured, antigen as analyte.
For test [4], the target named is T2, human FcRn. The experiment in a line: SPR, Biacore 8K, CM5 chip, antibody immobilised, human FcRn as analyte, pH 6.0.
Test [5] has as its target T3, biotinylated recombinant human TL1A (human, UniProt O95150 57-251, limits assumed, biotinylated (sites not given)).
T3 sequence: T1 sequence (looked up)
The test can be described thus: competition ELISA, blocks biotinylated human TL1A (3.5 nM) binding to coated DR3/Fc.

Test [6] addresses T3, biotinylated recombinant human TL1A. The test can be described thus: competition ELISA, blocks biotinylated human TL1A (3.5 nM) binding to coated DcR3/Fc.

Where “and” joins values, the source holds several entries; their conditions need not be identical. Equal entries are not always repeated.

T2 sequence (P55899 24-297 limits assumed, chain 1 of 2): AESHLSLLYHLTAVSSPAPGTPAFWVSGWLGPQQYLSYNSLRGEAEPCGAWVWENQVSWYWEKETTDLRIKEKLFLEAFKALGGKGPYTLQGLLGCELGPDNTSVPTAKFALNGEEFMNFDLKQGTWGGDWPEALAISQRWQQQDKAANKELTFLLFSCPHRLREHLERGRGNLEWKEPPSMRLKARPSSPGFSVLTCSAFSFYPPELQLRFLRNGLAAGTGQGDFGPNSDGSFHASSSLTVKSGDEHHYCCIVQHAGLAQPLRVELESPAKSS
T2 sequence (P61769 21-119 limits assumed, chain 2 of 2): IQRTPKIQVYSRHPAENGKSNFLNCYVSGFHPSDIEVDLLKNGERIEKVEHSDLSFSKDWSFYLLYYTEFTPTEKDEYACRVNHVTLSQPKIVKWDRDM

B1: AB_TL1A_02_004_HL2 (antibody, human IgG1, kappa)
heavy: QVQLVQSGAEVKKPGASVKVSCKASGYDFTYYGISWVRQAPGQGLEWMGWISPYNGNTHYAQKLQGRVTMTTDTSTRTAYMELRSLRSDDTAVYYCARENYYGSGAYRGGMDVWGQGTTVTVSSASTKGPSVFPLAPSSKSTSGGTAALGCLVKDYFPEPVTVSWNSGALTSGVHTFPAVLQSSGLYSLSSVVTVPSSSLGTQTYICNVNHKPSNTKVDKKVEPKSCDKTHTCPPCPAPEAAGAPSVFLFPPKPKDTLMISRTPEVTCVVVDVSHEDPEVKFNWYVDGVEVHNAKTKPREEQYNSTYRVVSVLTVLHQDWLNGKEYKCKVSNKALPAPIEKTISKAKGQPREPQVYTLPPSREEMTKNQVSLTCLVKGFYPSDIAVEWESNGQPENNYKTTPPVLDSDGSFFLYSKLTVDKSRWQQGNVFSCSVLHEALHSHYTQKSLSLSPG
light: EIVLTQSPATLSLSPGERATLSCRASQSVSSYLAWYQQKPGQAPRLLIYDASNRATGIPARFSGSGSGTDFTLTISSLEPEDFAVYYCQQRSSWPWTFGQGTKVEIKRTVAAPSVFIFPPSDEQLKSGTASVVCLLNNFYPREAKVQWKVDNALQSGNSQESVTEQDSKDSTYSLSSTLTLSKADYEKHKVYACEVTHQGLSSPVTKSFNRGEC
notes: HLE mutations M428L, N434S
Turning to B1, in test [1], the “IC50 (nM), inhibition of TL1A-induced apoptosis of TF-1 cells (Caspase-Glo 3/7)” value worked out at 0.87 nM. For the same molecule, in test [1], the “max inhibition of TL1A-induced apoptosis of TF-1 cells” value was determined as 95%. Further, the dissociation constant (Kd) (usually a measure of binding affinity in units of concentration) was 159 nM and 190 nM with human FcRn [2]; less than 0.0262 nM in test [3]; 159 nM and 190 nM in the test with human FcRn [4]. Further, the figures for the IC50 in test [5] and in test [6] were 0.58 nM and 1.3 nM, respectively.
